Where a chain is given by its changes, count along the chain named. Several values for one entry are separate records, joined by “and”; a condition that tells them apart may be missing. Equal entries are not always repeated.
B1: h2731 (antibody, V domains shown)
VH: EVQLLESGGGLVQPGGSLRLSCAASGFTFSNYGMSWVRQAPGKGLEWVASIRSGSGRTYYSDNVKGRFTISRDNSKNTLYLQMNSLRAEDTAVYYCVRYDHYSGSSDYWGQGTLVTVSS
VL: DVVMTQSPLSLPVTLGEPASISCKSSQSLLDYDGKTYLNWLLQKPGQSPQRLIYRVTNRDTGVPDRFSGSGSGTDFTLKISRVEAEDVGVYYCWQGTHFPRSFGQGTKVEIK
notes: Humanized IgG mAb; Only the variable domains are tied to the construct
B2: h2731 Fab (Fab, V domains shown)
VH: B1 VH
VL: B1 VL
B3: bapineuzumab Fab (Fab, V domains shown)
VH: B1 VH with S55G
VL: B1 VL with L15P, Y32S, R55L, T57S, N58K, R59L, T61S, S102T
notes: also called hBP
B4: h2726 Fab (Fab, V domains shown)
VH: B1 VH
VL: B1 VL with L15P, R55K, T57S, T61S, S102T
B5: h2726 (antibody, V domains shown)
VH: B1 VH
VL: B1 VL with L15P, R55K, T57S, T61S, S102T
notes: Humanized IgG mAb; Only the variable domains are tied to the construct; also called PB-0573
B6: h2931 (antibody, V domains shown)
VH: B1 VH with Y32F, I51V, S103T, S105T
VL: B1 VL
notes: also called PB-0576
B7: h2931 Fab (Fab, V domains shown)
VH: B1 VH with Y32F, I51V, S103T, S105T
VL: B1 VL
B8: h2831 (antibody, V domains shown)
VH: B1 VH with Y32F, I51V, S105T
VL: B1 VL
notes: Humanized IgG mAb; also called PB-0575
B9: h2831 Fab (Fab, V domains shown)
VH: B1 VH with Y32F, I51V, S105T
VL: B1 VL

What was measured:
[1] = target: T1, Aβ pathology (plaques) in human AD brain tissue (human, UniProt P05067 672-713); assay: IHC on frozen human AD brain sections, brain AD 13-75; % stained area against antibody concentration (0.03-9 µg/ml)
T1 construct: Native tissue deposits, heterogeneous; also called tissue Aβ pathology; Aβ plaques
Protocol: (§1) Tissue Sectioning and Fixation. The unfixed frozen brain tissue samples were embedded in Tissue-Tek OCT (Sakura Finetek) in cryomolds dipped in a mixture of 2-methylbutane and dry ice slurry (−60° C.) then stored at −80° C. until sectioning. Serial 10 μm thick cryosections were generated using a Leica 3050S cryostat. The sections were directly thaw-mounted on positively charged glass slides and were stored at −20° C. until use. Prior to immunohistochemistry IHC procedures, the slides were immersed in 10% neutral buffered formalin solution for 10 minutes at 4° C., rinsed in PBS, then incubated for an hour at 37° C. in a glucose oxidase solution (20 mM beta D(+) glucose, 2 mM sodium azide, and 2 units/mL glucose oxidase in 1×PBS). The slides were rinsed 3 times for 5 minutes in PBS before they were transferred onto staining racks for processing in an automated stainer.
(§2) Antibody biotinylation. The humanized IgG antibodies were biotinylated using a non-covalent method, by means of incubation with a biotin-conjugated goat anti-human monovalent fab fragment (Jackson ImmunoResearch) in a ratio of 1:4, for 1 hour at room temperature. Unbound excess Fab was absorbed by pre-incubation with human serum for an additional hour before use. The freshly prepared antibodies were then loaded into the stainer for immediate application to tissue sections.
(§3) Immunostaining. The staining was performed in an automated Leica Bond Rx Stainer (Leica Biosystems), using the Bond Research Kit (DS980, Leica Biosystems) and the avidin-biotin amplified immuno-peroxidase detection system. Each biotinylated anti-Aβ antibody, or a human IgG control, was applied to the sections, at specified concentrations, for one hour and the staining was visualized using the avidin-biotin amplification system (ABC Elite Standard, PK-6100; Vector Laboratories). Hematoxylin counter-staining of nuclei was subsequently applied to sections before dehydration in an ascending series of alcohols, clearing in xylene, cover-slipping, and air-drying.

Aβ1-42 fibrils [2] = target: T2, Aβ1-42 fibrils (human); assay: competition ELISA; plate coated with fibril Aβ42; competitor hBP-biotin; IC50 of test divided by IC50 of hBP
T2 construct: Aβ1-42 polypeptide, HFIP-treated, incubated in 10 mM HCl at 37 C for 24 h, pelleted fibrillar fraction, sonicated; Multimeric fibril; also called fibril Aβ42; fibrillar Aβ42
Protocol: To generate fibrils, Aβ 1-42 polypeptides, previously treated with HFIP (hexafluoroisopropanol) and dried, were resuspended in DMSO to 5 mM, then further diluted to 100 uM with 10 mM HCl. Samples were incubated at 37° C. for 24 h, and then centrifuged to separate soluble and fibrillar species. The pellet was the resuspended in 1×D-PBS to the original volume and sonicated before use.
Plates were coated with 0.5 mg/ml of fibril Aβ 42 and blocked, e.g., with 1% BSA/PBS. […] 100 ul of GE Streptavidin HRP diluted 1/10,000 was then added and incubated for 30 minutes. Plates were then washed 6× with TTBS. Thermo Fisher o-phenylenediamine dihydrochloride (OPD) substrate was prepared fresh per manufacturers direction, and 100 ul per well was added. The reaction was incubated for 15 minutes and the reaction stopped with 50 ul 2N H₂SO₄.

[3] = target: soluble Aβ (Aβ42) aggregates (human, unlabeled, biotinylated or 9:1 unlabeled:biotinylated (position of biotin not stated)); assay: cell-based or functional assay
Aβ1-28 [4] = target: T3, Aβ1-28 (human); assay: SPR (Biacore T200); antibody captured by anti-human Fc, Aβ1-28 as analyte; global 1:1 fit
T3 construct: Bought peptide (Bachem); also called Aß1-28 monomer; A131-28
Protocol: (§4) Determination of binding affinity of anti-Aß candidates to Aß₁₋₂₈ (Bachem, Torrance, CA) was performed using a Biacore T200. Anti-human Fc antibody was immobilized to a CM3 sensor chip (GE Healthcare Life Sciences) via amine coupling and used to capture Aß antibodies.
(§5) Various concentrations of Aß₁₋₂₈ (analyte, ranging from concentrations of 100 nM down to 0.39 nM, serial diluted 2-fold each dilution step) were passed over the captured ligand at 50 μl/min in running buffer (HBS+0.05% P-20, 1 mg/mL BSA) for 240 s association time and 900 s dissociation time. Data were blank subtracted to both an irrelevant sensor not containing ligand, and buffer runs containing 0 nM analyte concentration. Analysis was performed using a global 1:1 fit with Biacore Evaluation software (v3.0).

[5] = target: T1, Aβ pathology (plaques) in human AD …; assay: IHC on frozen human AD brain sections, brain AD 15-19; % stained area against antibody concentration (0.03-9 µg/ml)
Protocol: as §1, §2, §3

AβpE3-42 = target: T4, AβpE3-42 (human, N-terminal pyroglutamate at position 3 of Aβ); assay: direct binding to AβpE3-42 (FIG. 27)
T4 construct: also called pyroglutamate-3 Aβ; pyroglutamate-modified Aβ

Aβ1-42 fibrils [6] = target: T2, Aβ1-42 fibrils; assay: SPR (BIAcore T200); Aβ1-42 fibrils immobilized, antibody as analyte; global 1:1 fit
Protocol: (§6) Fibrils were immobilized on sensor chip CMS (GE Healthcare Life Sciences) via amine coupling to a level to ensure a maximum binding of analyte of approximately 50 RU. […] Regeneration of the chip surface was accomplished by 2 short injections of 10 mM Glycine-HCl pH 1.7. Data was blank subtracted to both a sensor not containing ligand and 0 nM analyte concentration. Analysis was performed using a global 1:1 fit with BIAcore Insight Evaluation software (v2.0) with bulk refractive index set to zero RU.

Aβ1-42 fibrils [7] = target: T2, Aβ1-42 fibrils; assay: direct binding to fibrillar Aβ1-42 (FIG. 27)
Aβ1-42 fibrils [8] = target: T2, Aβ1-42 fibrils; assay: SPR (BIAcore T200); Aβ1-42 fibrils immobilized, antibody as analyte; global 1:1 fit; apparent KD (avidity)
Protocol: as §6

[9] = target: T1, Aβ pathology (plaques) in human AD …; assay: IHC on frozen human AD brain sections, brain AD 14-11; % stained area against antibody concentration (0.03-9 µg/ml)
Protocol: as §1, §2, §3

[10] = target: T1, Aβ pathology (plaques) in human AD …; assay: IHC on frozen human AD brain sections, brain AD 11-97; % stained area against antibody concentration (0.03-9 µg/ml)
Protocol: as §1, §2, §3

Aβ1-28 [11] = target: T3, Aβ1-28; assay: SPR (Biacore T200); antibody captured by anti-human Fc, Aβ1-28 as analyte; global 1:1 fit; apparent KD
Protocol: as §4, §5

Aβ1-42 fibrils [12] = target: T2, Aβ1-42 fibrils; assay: SPR (BIAcore T200); Aβ1-42 fibrils immobilized, Fab as analyte; global 1:1 fit
Protocol: (§7) Fibrils were immobilized on sensor chip CMS (GE Healthcare Life Sciences) via amine coupling to a level to ensure a maximum binding of analyte of approximately 100 RU. Various concentrations of antibodies or Fabs (ranging from 1 nM to 100 nM) were passed over the coupled ligand at 30 μL/min in running buffer (HBS+0.05% P-20, 1 mg/mL BSA) for 300 s association time and 1200 s dissociation time. Regeneration of the chip surface was accomplished by 2 short injections of 10 mM Glycine-HCl at pH 1.7. Data was blank-subtracted to both a sensor not containing ligand and 0 nM analyte concentration. Analysis was performed using a global 1:1 fit with BIAcore Insight Evaluation software (v2.0) with bulk refractive index set to zero RU.

Aβ1-42 fibrils [13] = target: T2, Aβ1-42 fibrils; assay: SPR (BIAcore T200); Aβ1-42 fibrils immobilized, Fab as analyte; global 1:1 fit; apparent KD
Protocol: as §7

[14] = target: soluble Aβ oligomers (Example 8) (UniProt P05067 672-713, biotin on the biotinylated preparation and on one tenth of the 9:1 mixture (position not given)); assay: direct ELISA; plate coated with soluble Aβ oligomers, antibody titrated
Protocol: The samples were incubated for 2 hours at room temperature. Plates were washed 4 times with TBS. 0.1% tween 20. Goat anti-human (H+L) HRP (Jackson Immunoresearch, PA) was diluted 1/5000 in 0.1% BSA/PBS 0.1% tween 20, added at 100 μl/well and incubated 1 hour at room temperature. Plates were washed 4 times and o-phenylenediamine dihydrochloride tablets (ThermoFisher) were prepared as per manufacturer instructions. 100 μl was added per well and incubated for 15 minutes at room temperature. […] Curves and resulting EC₅₀ estimations represent nonlinear 3-parameter least-squares fit of data using GraphPad Prism software.

T1 sequence (P05067 672-713): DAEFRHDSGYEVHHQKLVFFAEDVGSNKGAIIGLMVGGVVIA
T2 sequence (peptide, as listed by the source): as the sequence (P05067 672-713) above
T3 sequence (peptide, as listed by the source): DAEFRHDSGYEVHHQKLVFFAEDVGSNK
soluble Aβ oligomers (Example 8), sequence (P05067 672-713): as the sequence (P05067 672-713) above
soluble Aβ (Aβ42) aggregates (human, unlabeled, biotinylated or 9:1 unlabeled:biotinylated (position of biotin not stated)), sequence (peptide, as listed by the source): as the sequence (P05067 672-713) above
T4 sequence (peptide, as listed by the source): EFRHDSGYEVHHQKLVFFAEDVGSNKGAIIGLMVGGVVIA

Binder	Area Under Curve [1]	IC50 ratio (test:hBP) (Aβ1-42 fibrils [2])	blockade of binding of soluble Aβ to rat hippocampal neurons at 1:50 molar mAb:Aβ42 ratio [3]	koff (Aβ1-28 [4])	kon (Aβ1-28 [4])	Area Under Curve [5]	binding result (AβpE3-42)	koff (Aβ1-42 fibrils [6])	kon (Aβ1-42 fibrils [6])	EC50 (Aβ1-42 fibrils [7])	Kd (Aβ1-42 fibrils [8])	Area Under Curve [9]	Area Under Curve [10]	Kd (Aβ1-28 [11])	koff (Aβ1-42 fibrils [12])	kon (Aβ1-42 fibrils [12])	Kd (Aβ1-42 fibrils [13])	EC50 [14]
B1	150	0.61 ratio	> 90%	0.000595 s⁻¹	119000 M⁻¹ s⁻¹	52.7	no binding (tested: 100 ng/ml)	2.62e-05 s⁻¹	372000 M⁻¹ s⁻¹	0.0081 µg/mL and 0.054 nM	0.0704 nM	149	50.6	5.01 nM				
B2															0.000289 s⁻¹	129000 M⁻¹ s⁻¹	2.24 nM	
B3																	5.34 nM	
B4															0.000259 s⁻¹	129000 M⁻¹ s⁻¹	2.01 nM	
B5	149	0.68 ratio		0.000555 s⁻¹	92300 M⁻¹ s⁻¹	52.1		2.12e-05 s⁻¹	393000 M⁻¹ s⁻¹		0.054 nM	149	50.2	6.01 nM				
B6	139	0.59 ratio		0.000412 s⁻¹	94700 M⁻¹ s⁻¹	44.8		2.05e-05 s⁻¹	335000 M⁻¹ s⁻¹		0.0612 nM	134	47.7	4.35 nM				0.023 µg/mL and 0.15 nM
B7															0.000199 s⁻¹	123000 M⁻¹ s⁻¹	1.62 nM	
B8	139	0.77 ratio		0.000508 s⁻¹	73100 M⁻¹ s⁻¹	49.7		2.94e-05 s⁻¹	265000 M⁻¹ s⁻¹		0.111 nM	149	49.2	6.95 nM				
B9															0.000248 s⁻¹	108000 M⁻¹ s⁻¹	2.31 nM	

Source: patent US20230331828A1 (published 2023)
